Consider one molecule from paper doi:10.1101/2022.07.21.500940 (bioRxiv, 2022).

For the test, the target named is Human PCNA (human, UniProt P12004 1-261). The test can be described thus: pull-down.
Human PCNA, sequence (P12004 whole entry): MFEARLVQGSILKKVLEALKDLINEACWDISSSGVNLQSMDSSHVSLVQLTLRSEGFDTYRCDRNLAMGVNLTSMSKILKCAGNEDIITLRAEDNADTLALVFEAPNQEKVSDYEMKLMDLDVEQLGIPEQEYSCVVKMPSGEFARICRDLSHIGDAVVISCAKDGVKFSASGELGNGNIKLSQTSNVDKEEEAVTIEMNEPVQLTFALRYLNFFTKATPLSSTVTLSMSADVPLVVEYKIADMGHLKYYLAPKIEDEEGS

Turning to ARHPSTKVMKQMDIGVYFGLPPKRKEEKLL [GST-tagged SNM1A PIP box peptide (GST-PIP)], the binding result is reported as “binds”.
